From patent publication US7608407 (Boehringer Ingelheim, dated 2009)

Molecular target: T1, GST-HDC (human histidine decarboxylase, amino acid residues 1-477, fused to GST) (human, UniProt P19113 1-477)
T1 sequence: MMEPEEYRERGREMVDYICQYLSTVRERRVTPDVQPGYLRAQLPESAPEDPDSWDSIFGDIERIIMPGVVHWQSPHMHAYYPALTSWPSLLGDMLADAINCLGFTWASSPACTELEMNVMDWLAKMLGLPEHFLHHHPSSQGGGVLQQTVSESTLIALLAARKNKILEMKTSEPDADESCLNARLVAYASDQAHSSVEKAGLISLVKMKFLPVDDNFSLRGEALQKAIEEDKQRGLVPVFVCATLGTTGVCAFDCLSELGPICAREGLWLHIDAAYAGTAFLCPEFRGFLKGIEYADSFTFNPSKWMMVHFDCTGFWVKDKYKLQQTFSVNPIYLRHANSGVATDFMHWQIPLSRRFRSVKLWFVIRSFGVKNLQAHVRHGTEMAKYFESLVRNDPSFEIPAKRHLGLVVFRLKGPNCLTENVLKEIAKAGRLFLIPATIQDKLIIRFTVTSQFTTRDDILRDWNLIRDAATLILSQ
Assay: cell-based or functional assay

B1: dipeptide histidine-phenylalanine (peptide)
peptide: HF
  IC50 (inhibition of HDC enzyme activity, standard fluorescence polarization HDC assay): 228 µM
